Values of other authors, collected in patent publication US20200069786A1, “COMPOSITION AND PROCESS FOR PREPARING VACCINE” (TREOS BIO ZRT., priority 2018, published 2020).
Like-named read-outs stand apart in the source and are kept apart here.

B1: SSX-4 (protein, UniProt O60224 1-188, looked up)
Protein SSX4: MNGDDAFARRPRDDAQISEKLRKAFDDIAKYFSKKEWEKMKSSEKIVYVYMKLNYEVMTKLGFKVTLPPFMRSKRAADFHGNDFGNDRNHRNQVERPQMTFGSLQRIFPKIMPKKPAEEENGLKEVPEASGPQNDGKQLCPPGNPSTLEKINKTSGPKRGKHAWTHRLRERKQLVVYEEISDPEEDDE
B2: SPAN-Xc (protein, UniProt Q9NY87 1-97, looked up)
Sperm protein associated with …: MDKQSSAGGVKRSVPCDSNEANEMMPETSSGYSDPQPAPKKLKTSESSTILVVRYRRNVKRTSPEELVNDHARENRINPLQMEEEEFMEIMVEIPAK
B3: TAF7L (protein, UniProt Q5H9L4 1-462, looked up)
Transcription initiation …: MECPEGQLPISSENDSTPTVSTSEVTSQQEPQILVDRGSETTYESSADIAGDEGTQIPADEDTQTDADSSAQAAAQAPENFQEGKDMSESQDEVPDEVENQFILRLPLEHACTVRNLARSQSVKMKDKLKIDLLPDGRHAVVEVEDVPLAAKLVDLPCVIESLRTLDKKTFYKTADISQMLVCTADGDIHLSPEEPAASTDPNIVRKKERGREEKCVWKHGITPPLKNVRKKRFRKTQKKVPDVKEMEKSSFTEYIESPDVENEVKRLLRSDAEAVSTRWEVIAEDGTKEIESQGSIPGFLISSGMSSHKQGHTSSEYDMLREMFSDSRSNNDDDEDEDDEDEDEDEDEDEDEDKEEEEEDCSEEYLERQLQAEFIESGQYRANEGTSSIVMEIQKQIEKKEKKLHKIQNKAQRQKDLIMKVENLTLKNHFQSVLEQLELQEKQKNEKLISLQEQLQRFLKK
B4: FMR1NB (protein, UniProt Q8N0W7 1-255, looked up)
FMR1 neighbor protein: MSSHRRKAKGRNRRSHRAMRVAHLELATYELAATESNPESSHPGYEAAMADRPQPGWRESLKMRVSKPFGMLMLSIWILLFVCYYLSYYLCSGSSYFVLANGHILPNSENAHGQSLEEDSALEALLNFFFPTTCNLRENQVAKPCNELQDLSESECLRHKCCFSSSGTTSFKCFAPFRDVPKQMMQMFGLGAISLILVCLPIYCRSLFWRSEPADDLQRQDNRVVTGLKKQRRKRKRKSEMLQKAARGREEHGDE
B5: SCP-1 (protein, UniProt Q15431 1-976, looked up)
Synaptonemal complex protein 1: MEKQKPFALFVPPRSSSSQVSAVKPQTLGGDSTFFKSFNKCTEDDFEFPFAKTNLSKNGENIDSDPALQKVNFLPVLEQVGNSDCHYQEGLKDSDLENSEGLSRVYSKLYKEAEKIKKWKVSTEAELRQKESKLQENRKIIEAQRKAIQELQFGNEKVSLKLEEGIQENKDLIKENNATRHLCNLLKETCARSAEKTKKYEYEREETRQVYMDLNNNIEKMITAFEELRVQAENSRLEMHFKLKEDYEKIQHLEQEYKKEINDKEKQVSLLLIQITEKENKMKDLTFLLEESRDKVNQLEEKTKLQSENLKQSIEKQHHLTKELEDIKVSLQRSVSTQKALEEDLQIATKTICQLTEEKETQMEESNKARAAHSFVVTEFETTVCSLEELLRTEQQRLEKNEDQLKILTMELQKKSSELEEMTKLTNNKEVELEELKKVLGEKETLLYENKQFEKIAEELKGTEQELIGLLQAREKEVHDLEIQLTAITTSEQYYSKEVKDLKTELENEKLKNTELTSHCNKLSLENKELTQETSDMTLELKNQQEDINNNKKQEERMLKQIENLQETETQLRNELEYVREELKQKRDEVKCKLDKSEENCNNLRKQVENKNKYIEELQQENKALKKKGTAESKQLNVYEIKVNKLELELESAKQKFGEITDTYQKEIEDKKISEENLLEEVEKAKVIADEAVKLQKEIDKRCQHKIAEMVALMEKHKHQYDKIIEERDSELGLYKSKEQEQSSLRASLEIELSNLKAELLSVKKQLEIEREEKEKLKREAKENTATLKEKKDKKTQTFLLETPEIYWKLDSKAVPSQTVSRNFTSVDHGISKDKRDYLWTSAKNTLSTPLPKAYTVKTPTKPKLQQRENLNIPIEESKKKRKMAFEFDINSDSSETTDLLSMVSEEETLKTLYRNNNPPASHLCVKTPKKAPSSLTTPGSTLKFGAIRKMREDRWAVIAKMDRKKKLKEAEKLFV
B6: AKAP-3 (protein, UniProt O75969 1-853, looked up)
A-kinase anchor protein 3: MSEKVDWLQSQNGVCKVDVYSPGDNQAQDWKMDTSTDPVRVLSWLRRDLEKSTAEFQDVRFKPGESFGGETSNSGDPHKGFSVDYYNTTTKGTPERLHFEMTHKEIPCQGPRAQLGNGSSVDEVSFYANRLTNLVIAMARKEINEKIDGSENKCVYQSLYMGNEPTPTKSLSKIASELVNETVSACSRNAAPDKAPGSGDRVSGSSQSPPNLKYKSTLKIKESTKERQGPDDKPPSKKSFFYKEVFESRNGDYAREGGRFFPRERKRFRGQERPDDFTASVSEGIMTYANSVVSDMMVSIMKTLKIQVKDTTIATILLKKVLLKHAKEVVSDLIDSFLRNLHSVTGTLMTDTQFVSAVKRTVFSHGSQKATDIMDAMLRKLYNVMFAKKVPEHVRKAQDKAESYSLISMKGMGDPKNRNVNFAMKSETKLREKMYSEPKSEEETCAKTLGEHIIKEGLTLWHKTQQKECKSLGFQHAAFEAPNTQRKPASDISFEYPEDIGNLSLPPYPPEKPENFMYDSDSWAEDLIVSALLLIQYHLAQGGRRDARSFVEAAGTTNFPANEPPVAPDESCLKSAPIVGDQEQAEKKDLRSVFFNFIRNLLSETIFKRDQSPEPKVPEQPVKEDRKLCERPLASSPPRLYEDDETPGALSGLTKMAVSQIDGHMSGQMVEHLMNSVMKLCVIIAKSCDASLAELGDDKSGDASRLTSAFPDSLYECLPAKGTGSAEAVLQNAYQAIHNEMRGTSGQPPEGCAAPTVIVSNHNLTDTVQNKQLQAVLQWVAASELNVPILYFAGDDEGIQEKLLQLSAAAVDKGCSVGEVLQSVLRYEKERQLNEAVGNVTPLQLLDWLMVNL
B7: SSX-2 (protein, UniProt Q16385 1-188, looked up)
Protein SSX2: MNGDDAFARRPTVGAQIPEKIQKAFDDIAKYFSKEEWEKMKASEKIFYVYMKRKYEAMTKLGFKATLPPFMCNKRAEDFQGNDLDNDPNRGNQVERPQMTFGRLQGISPKIMPKKPAEEGNDSEEVPEASGPQNDGKELCPPGKPTTSEKIHERSGPKRGEHAWTHRLRERKQLVIYEEISDPEEDDE

Test system: TSA
[1] = TSA expression rate in BLADDER cancer
[2] = TSA expression rate in Cervical cancer
[3] = TSA expression rate in Esophageal
[4] = TSA expression rate in GASTRIC cancer
[5] = TSA expression rate in HEAD and NECK
[6] = TSA expression rate in LEUKEMIAS
[7] = TSA expression rate in LUNG cancer
[8] = TSA expression rate in LYMPHOMAS
[9] = TSA expression rate in MELANOMA
[10] = TSA expression rate in PEDIATRIC
[11] = TSA expression rate in PROSTATE cancer

| Molecule | TSA Expression Rate (ER) (BRAIN) [%] | TSA Expression Rate (ER) (BREAST) [%] | TSA Expression Rate (ER) (HCC) [%] | TSA Expression Rate (ER) (OVARIAN) [%] | TSA Expression Rate (ER) (PANCREATIC) [%] | TSA Expression Rate (ER) (THYROID) [%] | Expression Rate (ER) % [1] [%] | Expression Rate (ER) % [2] [%] | Expression Rate (ER) % [3] [%] | Expression Rate (ER) % [4] [%] | Expression Rate (ER) % [5] [%] | Expression Rate (ER) % (TSA expression rate in Kidney) [%] | Expression Rate (ER) % [6] [%] | Expression Rate (ER) % [7] [%] | Expression Rate (ER) % [8] [%] | Expression Rate (ER) % [9] [%] | Expression Rate (ER) % [10] [%] | Expression Rate (ER) % (TSA expression rate in CRC) [%] | Expression Rate (ER) % [11] [%] | TSA Expression Rate (ER) (LUNG) [%] |
| --- | --- | --- | --- | --- | --- | --- | --- | --- | --- | --- | --- | --- | --- | --- | --- | --- | --- | --- | --- | --- |
| B1 | 4 | 27 | 48 | 13 | 21 | 0 | 11 | 20 | 7 | 23 | 29 | 0 | 30 | 13 | 16 | 21 | 67 | – | – | – |
| B2 | – | 26 | 60 | 0 | 0 | – | 9 | – | 0 | 0 | – | – | 4 | 17 | – | 70 | – | 24 | – | – |
| B3 | – | 0 | – | – | – | 0 | 10 | – | 0 | – | 10 | 0 | – | 9 | – | 21 | – | 0 | 0 | – |
| B4 | – | 55 | – | – | – | – | – | – | 8 | – | – | 0 | – | – | – | – | – | – | 0 | 28 |
| B5 | 14 | 37 | 25 | 15 | 31 | 0 | 2 | – | 2 | 14 | 12 | 8 | 11 | 1 | 39 | 16 | – | 6 | – | – |
| B6 | – | 40 | 50 | 48 | – | – | – | – | – | 89 | – | – | – | – | – | – | – | 83 | – | 46 |
| B7 | 4 | 7 | 46 | 7 | 4 | 8 | 13 | 4 | 0 | 3 | 17 | 2 | 12 | 10 | 16 | 35 | 44 | 5 | 28 | – |
